Columns and labels:
Fructose Bisphosphatase = target: T1, Fructose Bisphosphatase (Spinacia oleracea, UniProt P22418); assay: Activation of chloroplast fructose bisphosphatase by thioredoxin-reduced proteins; assay type: biochemical, spinach; settings: standard DTT assay, 1 μg E. coli thioredoxin, 20 μg protein; corrected for thioredoxin alone
T1 construct: fructose-1,6-bisphosphatase (FBPase) were purified from leaves of corn (Jacquot, J.-P. et al. (1981), Plant Physiol. 68:300-304) and spinach; from tissue; host or cells: spinach leaves
T1 sequence (P22418 58-415): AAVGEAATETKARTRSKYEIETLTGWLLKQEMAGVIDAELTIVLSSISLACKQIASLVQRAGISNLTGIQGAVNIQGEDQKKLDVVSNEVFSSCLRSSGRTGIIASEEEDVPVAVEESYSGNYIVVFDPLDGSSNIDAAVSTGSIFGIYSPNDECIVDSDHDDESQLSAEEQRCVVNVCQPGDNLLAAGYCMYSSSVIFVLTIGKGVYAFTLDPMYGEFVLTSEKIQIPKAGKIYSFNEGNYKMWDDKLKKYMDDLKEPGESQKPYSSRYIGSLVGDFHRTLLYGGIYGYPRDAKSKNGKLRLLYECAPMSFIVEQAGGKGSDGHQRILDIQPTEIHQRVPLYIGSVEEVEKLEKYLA
Protocol: The NADP-MDH, FBPase, NTR and Thioredoxin h assay methods were according to Florencio, F. J. et al. (1988), Arch. Biochem. Biophys. 266:496-507 with slight modifications as indicated. For enzyme activation assays, the preincubation time was 20 min unless specified otherwise.
The capability to replace a specific thioredoxin in the activation of chloroplast enzymes is one test for the ability of thiol groups of a given protein to undergo reversible redox change. […] A case in point is purothionin which, when reduced by thioredoxin h activates chloroplast FBPase (Wada, K. et al. (1981), FEBS Lett. 124:237-240, and Johnson, T. C. et al. (1987), Plant Physiol. 85:446-451). The FBPase, whose physiological activator is thioredoxin f, is unaffected by thioredoxin h. In this Example, the ability of cystine-rich proteins to activate FBPase as well as NADP-MDH was tested as set forth above. […]
The Wada et al., 1981 protocol was used for assaying NADP-malate dehydrogenase and fructose 1,6 bisphosphatase in the presence of thioredoxin and 2S protein. […] The 2S protein was monitored during purification by mBBr/SDS-polyacrylamide gel electrophoresis following its reduction by dithiothreitol and E. coli thioredoxin (Crawford et al., 1989; Kobrehel et al., 1991).

trypsin = target: T2, trypsin (Bos taurus, UniProt P00760); assay: Trypsin inhibition assay after reduction of the inhibitors; assay type: biochemical
T2 construct: purchased Sigma Chemical Co. (St. Louis, Mo.) T8640
T2 sequence (P00760 24-246): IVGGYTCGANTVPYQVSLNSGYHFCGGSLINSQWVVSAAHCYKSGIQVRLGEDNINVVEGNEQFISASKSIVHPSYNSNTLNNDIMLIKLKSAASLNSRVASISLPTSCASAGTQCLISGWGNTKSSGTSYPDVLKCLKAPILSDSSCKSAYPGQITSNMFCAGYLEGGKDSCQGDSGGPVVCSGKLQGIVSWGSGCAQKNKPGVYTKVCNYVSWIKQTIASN
Protocol: Unless indicated, the reduction of the trypsin inhibitors (0.4 mg/ml) was carried out in 0.1 ml of 20 mM sodium phosphate buffer, pH 7.9 containing 10 mM EDTA at 30° C. for 2 hours. The concentrations of thioredoxin, NTR, and NADPH were 0.024 mg/ml, 0.02 mg/ml, and 0.25 mM, respectively. […] Following reduction, aliquots of the inhibitor mixture were withdrawn either for determination of trypsin inhibitory activity or proteolytic susceptibility. In the subtilisin tests, the inhibitor mixture (50 μl) was directly mixed with subtilisin and incubated at room temperature for 1 hour. With the wheat protease preparation, the pH of the inhibitor mixture (50 μL) was first adjusted to 4.7 by mixing with 35 μl of 200 mM sodium acetate, pH 4.6; 10 μl of the wheat protease preparation was then added and incubation was continued for 2 hours at 37° C. To stop digestion with subtilisin, 2 μl of 100 mM phenylmethylsulfonyl fluoride (PMSF) and 10 μl of 10% SDS were added to the digestion mixture. With the plant protease preparation, digestion was stopped by adding an equal volume of SDS sample buffer [0.125 M Tris-HCl, pH 6.8, 4% (w/v) SDS, 20% (v/v) glycerol, 10% (v/v) β-mercaptoethanol, and 0.02% (w/v) bromophenol blue]. Proteolytic products were analyzed by electrophoresis with 12% or 16% SDS polyacrylamide slab gels (Laemmli, 1970). The dried slab gels were scanned with a laser densitometer (Pharmacia-LKB UltraScan XL) and the peak area of the KTI or BBTI protein band was obtained by integration with a Pharmacia GelScan XL software program.
Thioredoxin and NTR were assayed as previously described by Florencio et al. (1988). Trypsin activity was measured in 50 mM Tris-HCl, pH 7.9, by following the increase in absorbance at 253 nm with N-benzoyl-L-arginine ethyl ester as substrate (Mundy et al., 1984) or by the release of azo dye into the trichloroacetic acid (TCA)-soluble fraction from azocasein substrate (see below). For trypsin inhibition assays, trypsin (5 to 10 μg) was preincubated with appropriate amounts of KTI or BBTI for 5 minutes at room temperature in 50 mM Tris-HCl, pH 7.9 and proteolytic activity was then determined. While the two substrates yielded similar data, results are presented with only one substrate.
To determine the consequence of reduction by thioredoxin, the trypsin inhibitory activity of the oxidized and reduced forms of KTI and BBTI was compared. […] Similar results were obtained with DTT, a nonphysiological substitute for thioredoxin, and with thioredoxin reduced by lipoic acid, a naturally occurring dithiol.

B1: Soybean Kunitz: Kunitz soybean trypsin inhibitor (protein, UniProt P01070 25-205, looked up)
Trypsin inhibitor A: DFVLDNEGNPLENGGTYYILSDITAFGGIRAAPTGNERCPLTVVQSRNELDKGIGTIISSPYRIRFIAEGHPLSLKFDSFAVIMLCVGIPTEWSVVEDLPEGPAVKIGENKDAMDGWFRLERVSDDEFNNYKLVFCPQQAEDDKCGDIGISIDHDDGTRRLVVSKNKPLVVQFQKLDKESL
- ACTIVITY, FBPase (Fructose Bisphosphatase): 0 nkat/mg
- increase in trypsin activity effected by the NADP/thioredoxin system (trypsin): 3 fold
- Relative Trypsin Activity, inhibitor Reduced by DTT (trypsin; DTT 1 mM, 30° C., 1 hour, no inhibitor = 100): 68.6
- Relative Trypsin Activity, inhibitor Reduced by NTS (trypsin; E. coli NTS, 30° C., 2 hours, no inhibitor = 100): 55.6
- Relative Trypsin Activity, inhibitor Reduced by LA/Trx h (trypsin; lipoic acid 0.4 mM and wheat thioredoxin h, 30° C., 1 hour): 40.5
- Relative Trypsin Activity, inhibitor Oxidized (trypsin; no inhibitor = 100, N-benzoyl-L-arginine ethyl ester): 17.0
